Here are results for one molecule from patent US20240052061A1.

For the test, the target named is T1, human ecto-nucleoside triphosphate diphosphohydrolase-3 (NTPDase3) (human) (UniProt O75355).
T1 sequence (looked up): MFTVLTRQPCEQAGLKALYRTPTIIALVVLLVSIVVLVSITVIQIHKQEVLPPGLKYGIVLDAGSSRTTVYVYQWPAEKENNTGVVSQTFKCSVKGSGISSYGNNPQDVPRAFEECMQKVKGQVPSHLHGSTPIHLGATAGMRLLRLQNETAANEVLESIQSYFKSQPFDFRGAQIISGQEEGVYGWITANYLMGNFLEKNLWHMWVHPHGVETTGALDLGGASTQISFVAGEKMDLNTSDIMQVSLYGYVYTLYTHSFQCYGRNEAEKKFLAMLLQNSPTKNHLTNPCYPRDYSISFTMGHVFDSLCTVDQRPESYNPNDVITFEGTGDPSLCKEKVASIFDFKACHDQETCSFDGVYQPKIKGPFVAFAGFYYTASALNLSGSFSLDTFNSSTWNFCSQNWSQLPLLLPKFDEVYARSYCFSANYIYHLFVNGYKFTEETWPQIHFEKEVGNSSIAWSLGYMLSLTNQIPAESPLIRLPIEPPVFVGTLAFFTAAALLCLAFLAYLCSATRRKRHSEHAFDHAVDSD
The experiment in a line: cell-based or functional assay.

B1: 8E1 hIgG1 (antibody, V domains shown)
VH: EQQLLESGGGLVQPGGSLRLSCAVSGFSLSSYAMGWVRQAPGKGLEFIGIISYSGNTYYASWAKGRFTISKDSSKNTVYLQMNSLRAEDTAVYFCARARYGGYSTNSYYLNIWGPGTLVTVSS
VL: DVQMTQSPSTLSASVGDRVTITCQASENIYRVLAWYQQKPGKRPKLLIYGASNLESGVPSRFSGSGSGTEYTLTISSLQPDDFATYYCQGVVYNSDDSAFGGGTKVEIK
As for B1, the ADCC EC50 (µg/mL), NFAT luciferase reporter Jurkat/hCD16a-158V came to 0.047 µg/mL; the ADCC fold increase in relation to parental clone at 1 µg/mL is 1.5 fold; the CDC % of Maximal Cytotoxicity came out at 25%; the CDC EC50 was 0.867 µg/mL. Moreover, the CDC: fold increase in the maximal CDC cytotoxicity over the parental 8E1 Hu/Ra chimeric clone turned out to be 2 fold and the Enzyme Activity Inhibition Capacity: % of Maximal Inhibition came to 15%.
